Molecular target: Slack KNa channel, wildtype (Slack-B subunit), recombinantly expressed in CHO cells
Experiment: cell-based or functional assay

membrane currents of Slack-B on co-expression with Magi-1: 2 fold
Substance: Magi-1 (Membrane-Associated Guanylate Kinase 1), recombinantly expressed in CHO cells

— US20250154199A1
